Reference: patent publication US20060253917A1 (published 2006)

Key:
OsMADS45 aa 96-249 = target: T1, OsMADS45 aa 96-249 (Oryza sativa, UniProt P0C5B0 96-249); experiment: Y2H; input trait library
T1 construct: prey, AD fusion; also called PN20231
T1 sequence: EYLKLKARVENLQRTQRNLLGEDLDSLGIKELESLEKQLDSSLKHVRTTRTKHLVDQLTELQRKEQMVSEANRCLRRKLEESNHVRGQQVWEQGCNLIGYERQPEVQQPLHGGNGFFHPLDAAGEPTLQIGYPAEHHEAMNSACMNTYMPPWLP
Procedure, shortened: (§1)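 Myriad Genetics Inc. (Salt Lake City, Utah) supplied the automated, high-throughput yeast two-hybrid assay used to detect protein-protein interactions. A bait clone encoding a defined amino-acid fragment of a rice protein was screened against a rice prey library, either the input trait or the output trait library. To identify the interacting proteins, prey clones were retrieved and their encoding sequences were compared against databases by BLAST.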

OsMADS1 aa 100-231 = target: T2, OsMADS1 aa 100-231 (Oryza sativa, UniProt A2XDY1 100-231); experiment: Y2H; input trait library
T2 construct: prey, AD fusion; also called PN19788
T2 sequence: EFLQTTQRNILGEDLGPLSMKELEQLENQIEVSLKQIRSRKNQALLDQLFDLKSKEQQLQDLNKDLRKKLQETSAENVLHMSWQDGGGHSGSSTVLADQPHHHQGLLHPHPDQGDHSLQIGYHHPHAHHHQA
Procedure, shortened: as §1

OsMADS8 aa 75-248 = target: T3, OsMADS8 aa 75-248 (Oryza sativa, UniProt Q9SAR1 75-248); experiment: Y2H; input trait library
T3 construct: prey, AD fusion; also called PN20778
T3 sequence: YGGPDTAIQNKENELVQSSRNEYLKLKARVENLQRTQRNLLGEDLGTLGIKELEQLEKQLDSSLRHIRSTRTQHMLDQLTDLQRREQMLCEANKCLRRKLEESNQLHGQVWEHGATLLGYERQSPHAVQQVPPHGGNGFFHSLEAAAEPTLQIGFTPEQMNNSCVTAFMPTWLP
Procedure, shortened: as §1

OsMADS17 aa 106-249 = target: T4, OsMADS17 aa 106-249 (Oryza sativa, UniProt Q7XUN2 106-249); experiment: Y2H; input trait library
T4 construct: prey, AD fusion; also called PN20914; O. sativa MADS box transcription factor MADS17
T4 sequence: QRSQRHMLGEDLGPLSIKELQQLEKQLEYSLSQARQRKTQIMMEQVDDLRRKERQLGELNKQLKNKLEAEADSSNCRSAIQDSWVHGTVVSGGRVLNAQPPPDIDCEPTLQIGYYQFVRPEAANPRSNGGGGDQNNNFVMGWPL
Procedure, shortened: as §1

OsPN22834 aa 112-278 = target: T5, OsPN22834 aa 112-278 (Oryza sativa, UniProt Q01IK0 110-276); experiment: Y2H; input trait library
T5 construct: prey, AD fusion; also called Novel protein PN22834, similar to Oshox6, fragment
T5 sequence: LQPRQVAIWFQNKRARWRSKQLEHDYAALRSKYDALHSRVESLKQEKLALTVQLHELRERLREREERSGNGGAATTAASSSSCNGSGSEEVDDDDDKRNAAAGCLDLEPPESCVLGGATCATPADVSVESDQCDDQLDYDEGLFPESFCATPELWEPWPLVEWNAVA
Procedure, shortened: as §1

OsMADS8 aa 107-248 = target: T6, OsMADS8 aa 107-248 (Oryza sativa, UniProt Q9SAR1 107-248); experiment: Y2H; output trait library
T6 construct: prey, AD fusion; also called PN20778; O. sativa MADS box protein MADS8
T6 sequence: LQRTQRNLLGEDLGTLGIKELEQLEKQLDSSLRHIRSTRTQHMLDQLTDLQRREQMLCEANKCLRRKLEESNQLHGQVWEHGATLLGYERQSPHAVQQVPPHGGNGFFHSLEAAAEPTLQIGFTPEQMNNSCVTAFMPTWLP
Procedure, shortened: as §1

OsFDRMADS8 aa 53-233 = target: T7, OsFDRMADS8 aa 53-233 (Oryza sativa, UniProt A2Z9Q7 53-233); experiment: Y2H; output trait library
T7 construct: prey, AD fusion; also called PN20698
T7 sequence: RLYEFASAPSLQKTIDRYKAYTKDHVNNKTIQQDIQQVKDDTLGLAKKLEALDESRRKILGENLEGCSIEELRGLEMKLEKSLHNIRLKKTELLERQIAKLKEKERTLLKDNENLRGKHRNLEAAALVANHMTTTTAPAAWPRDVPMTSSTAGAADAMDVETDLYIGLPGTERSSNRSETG
Procedure, shortened: as §1

OsMADS6 aa 116-250 = target: T8, OsMADS6 aa 116-250 (Oryza sativa, UniProt Q6EU39 116-250); experiment: Y2H; output trait library
T8 construct: prey, AD fusion; also called PN20233
T8 sequence: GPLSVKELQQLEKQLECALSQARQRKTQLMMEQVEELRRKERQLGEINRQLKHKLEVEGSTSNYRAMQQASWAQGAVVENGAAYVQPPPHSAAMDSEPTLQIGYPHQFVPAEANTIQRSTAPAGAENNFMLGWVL
Procedure, shortened: as §1

OsMADS1 aa 95-257 = target: T9, OsMADS1 aa 95-257 (Oryza sativa, UniProt A2XDY1 95-257); experiment: Y2H; output trait library
T9 construct: prey, AD fusion; also called PN19788
T9 sequence: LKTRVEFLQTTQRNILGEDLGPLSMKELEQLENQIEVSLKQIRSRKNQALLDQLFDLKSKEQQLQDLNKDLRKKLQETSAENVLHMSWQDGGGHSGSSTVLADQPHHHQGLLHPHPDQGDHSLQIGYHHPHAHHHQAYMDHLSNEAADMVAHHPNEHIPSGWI
Procedure, shortened: as §1

OsFDRMADS6 aa 1-186 = target: T10, OsFDRMADS6 aa 1-186 (Oryza sativa, UniProt P0C5B1 1-186); experiment: Y2H; output trait library
T10 construct: prey, AD fusion; also called PN19766
T10 sequence: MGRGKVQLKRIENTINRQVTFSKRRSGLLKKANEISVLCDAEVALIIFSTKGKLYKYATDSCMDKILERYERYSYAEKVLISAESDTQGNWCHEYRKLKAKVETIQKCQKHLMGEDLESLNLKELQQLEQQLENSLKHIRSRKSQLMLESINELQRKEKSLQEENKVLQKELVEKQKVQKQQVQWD
Procedure, shortened: as §1

OsMADS45 aa 75-249 = target: T11, OsMADS45 aa 75-249 (Oryza sativa, UniProt P0C5B0 75-249); experiment: Y2H; output trait library
T11 construct: prey, AD fusion; also called PN20231
T11 sequence: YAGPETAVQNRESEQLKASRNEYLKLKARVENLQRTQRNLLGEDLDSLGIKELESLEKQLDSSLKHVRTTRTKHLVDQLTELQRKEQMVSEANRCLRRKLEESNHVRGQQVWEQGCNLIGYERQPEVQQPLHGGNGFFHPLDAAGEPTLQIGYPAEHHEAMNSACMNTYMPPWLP
Procedure, shortened: as §1

OsMADS5 aa 109-225 = target: T12, OsMADS5 aa 109-225 (Oryza sativa, UniProt A2Y9P0 109-225); experiment: Y2H; output trait library
T12 construct: prey, AD fusion; also called PN20770
T12 sequence: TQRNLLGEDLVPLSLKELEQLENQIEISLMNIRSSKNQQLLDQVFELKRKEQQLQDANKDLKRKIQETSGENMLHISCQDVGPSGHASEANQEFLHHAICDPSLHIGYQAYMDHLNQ
Procedure, shortened: as §1

OsMADS1 aa 73-239 = target: T13, OsMADS1 aa 73-239 (Oryza sativa, UniProt A2XDY1 73-239); experiment: Y2H; output trait library
T13 construct: prey, AD fusion; also called PN19788
T13 sequence: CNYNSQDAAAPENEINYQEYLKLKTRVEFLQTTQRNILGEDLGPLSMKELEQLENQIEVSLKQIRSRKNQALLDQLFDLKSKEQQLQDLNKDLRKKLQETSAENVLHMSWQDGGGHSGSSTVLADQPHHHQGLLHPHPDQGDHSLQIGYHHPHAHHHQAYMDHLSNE
Procedure, shortened: as §1

OsBAA81880 aa 24-203 = target: T14, OsBAA81880 aa 24-203 (Oryza sativa, UniProt Q9XJ66 24-203); experiment: Y2H; output trait library
T14 construct: prey, AD fusion; also called PN20837
Procedure, shortened: as §1

OsBAA81880 aa 2-168 = target: T15, OsBAA81880 aa 2-168 (Oryza sativa, UniProt Q9XJ66 2-168); experiment: Y2H; output trait library
T15 construct: prey, AD fusion; also called PN20837; O. sativa MADS box-like protein
Procedure, shortened: as §1

OsMADS45 aa 98-249 = target: T16, OsMADS45 aa 98-249 (Oryza sativa, UniProt P0C5B0 98-249); experiment: Y2H; output trait library
T16 construct: prey, AD fusion; also called PN20231
T16 sequence: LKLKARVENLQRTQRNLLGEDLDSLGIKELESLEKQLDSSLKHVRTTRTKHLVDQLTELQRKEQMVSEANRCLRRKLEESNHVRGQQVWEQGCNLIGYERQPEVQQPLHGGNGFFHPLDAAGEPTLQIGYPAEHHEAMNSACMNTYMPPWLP
Procedure, shortened: as §1

OsMADS5 aa 108-225 = target: T17, OsMADS5 aa 108-225 (Oryza sativa, UniProt A2Y9P0 108-225); experiment: Y2H; output trait library
T17 construct: prey, AD fusion; also called PN20770
T17 sequence: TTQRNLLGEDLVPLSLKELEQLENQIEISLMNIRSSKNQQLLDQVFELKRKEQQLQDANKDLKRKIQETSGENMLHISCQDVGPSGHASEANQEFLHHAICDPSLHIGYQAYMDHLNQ
Procedure, shortened: as §1

OsMADS8 aa 79-248 = target: T18, OsMADS8 aa 79-248 (Oryza sativa, UniProt Q9SAR1 79-248); experiment: Y2H; output trait library
T18 construct: prey, AD fusion; also called PN20778
T18 sequence: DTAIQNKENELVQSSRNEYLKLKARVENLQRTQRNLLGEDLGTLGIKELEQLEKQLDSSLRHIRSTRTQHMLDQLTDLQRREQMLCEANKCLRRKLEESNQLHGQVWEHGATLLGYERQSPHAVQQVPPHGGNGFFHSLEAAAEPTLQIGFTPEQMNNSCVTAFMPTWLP
Procedure, shortened: as §1

OsMADS45 aa 69-249 = target: T19, OsMADS45 aa 69-249 (Oryza sativa, UniProt P0C5B0 69-249); experiment: Y2H; output trait library
T19 construct: prey, AD fusion; also called PN20231
T19 sequence: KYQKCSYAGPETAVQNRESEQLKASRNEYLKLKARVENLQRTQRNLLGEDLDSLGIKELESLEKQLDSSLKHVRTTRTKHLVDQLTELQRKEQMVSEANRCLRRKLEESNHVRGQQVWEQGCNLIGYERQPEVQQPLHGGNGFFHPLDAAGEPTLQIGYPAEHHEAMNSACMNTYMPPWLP
Procedure, shortened: as §1

OsRAP1B aa 30-180 = target: T20, OsRAP1B aa 30-180 (Oryza sativa, UniProt Q10CQ1 30-180); experiment: Y2H; input trait library
T20 construct: bait, Gal4 DBD fusion; also called PN20232
T20 sequence: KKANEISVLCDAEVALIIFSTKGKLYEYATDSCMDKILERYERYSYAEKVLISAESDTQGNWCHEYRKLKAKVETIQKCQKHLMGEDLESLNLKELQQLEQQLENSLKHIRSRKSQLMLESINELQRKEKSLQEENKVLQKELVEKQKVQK
Procedure, shortened: as §1

Measured: binding result

T15 sequence (Q9XJ66 2-168): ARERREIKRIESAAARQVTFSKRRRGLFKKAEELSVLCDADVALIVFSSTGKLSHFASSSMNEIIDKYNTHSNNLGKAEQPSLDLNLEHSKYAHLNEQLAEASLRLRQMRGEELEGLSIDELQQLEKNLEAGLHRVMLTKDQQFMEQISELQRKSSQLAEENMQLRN
T14 sequence (Q9XJ66 24-203): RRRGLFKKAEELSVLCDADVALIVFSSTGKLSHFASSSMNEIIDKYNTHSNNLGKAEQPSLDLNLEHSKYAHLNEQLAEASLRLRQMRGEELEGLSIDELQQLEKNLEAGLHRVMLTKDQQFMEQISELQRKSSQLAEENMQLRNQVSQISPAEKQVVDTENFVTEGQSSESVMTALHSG

B1: OsRAP1B aa 1-247 (other)
chain: MGRGKVQLKRIENKINRQVTFSKRRSGLLKKANEISVLCDAEVALIIFSTKGKLYEYATDSCMDKILERYERYSYAEKVLISAESDTQGNWCHEYRKLKAKVETIQKCQKHLMGEDLESLNLKELQQLEQQLENSLKHIRSRKSQLMLESINELQRKEKSLQEENKVLQKELVEKQKVQKQQLQWDQTQPQTISSSSSFMMREALPTTNISNYPAAAGERIEDVPAGQPQHVRIGLPPWMLSHING
notes: bait, Gal4 DBD fusion; also called PN20232
not listed: OsMADS1 aa 73-239 | OsBAA81880 aa 24-203 | OsBAA81880 aa 2-168 | OsMADS45 aa 98-249 | OsMADS5 aa 108-225 | OsMADS8 aa 79-248 | OsMADS45 aa 69-249 | OsRAP1B aa 30-180
binds: all other assays above

B2: OsRAP1B aa 125-235 (other)
chain: LQQLEQQLENSLKHIRSRKSQLMLESINELQRKEKSLQEENKVLQKELVEKQKVQKQQLQWDQTQPQTISSSSSFMMREALPTTNISNYPAAAGERIEDVPAGQPQHVRIG
notes: as for B1
binds: OsMADS1 aa 73-239 | OsBAA81880 aa 24-203 | OsBAA81880 aa 2-168 | OsMADS45 aa 98-249 | OsMADS5 aa 108-225 | OsMADS8 aa 79-248 | OsMADS45 aa 69-249

B3: OsMADS5 aa 106-225 (other)
chain: LQTTQRNLLGEDLVPLSLKELEQLENQIEISLMNIRSSKNQQLLDQVFELKRKEQQLQDANKDLKRKIQETSGENMLHISCQDVGPSGHASEANQEFLHHAICDPSLHIGYQAYMDHLNQ
notes: prey, AD fusion; also called PN20770
binds: OsRAP1B aa 30-180
